According to patent publication US20190300897A1 (INSTITUTE OF GENETICS AND DEVELOPMENTAL BIOLOGY CHINESE …, published 2019):

T1: MBP-DA2 (Arabidopsis, UniProt Q93YV5 1-401)
T1 construct: Used as bacterial lysate and held on amylose resin; also called DA2 expressed as a MBP fusion protein; DA2-MBP
T1 sequence: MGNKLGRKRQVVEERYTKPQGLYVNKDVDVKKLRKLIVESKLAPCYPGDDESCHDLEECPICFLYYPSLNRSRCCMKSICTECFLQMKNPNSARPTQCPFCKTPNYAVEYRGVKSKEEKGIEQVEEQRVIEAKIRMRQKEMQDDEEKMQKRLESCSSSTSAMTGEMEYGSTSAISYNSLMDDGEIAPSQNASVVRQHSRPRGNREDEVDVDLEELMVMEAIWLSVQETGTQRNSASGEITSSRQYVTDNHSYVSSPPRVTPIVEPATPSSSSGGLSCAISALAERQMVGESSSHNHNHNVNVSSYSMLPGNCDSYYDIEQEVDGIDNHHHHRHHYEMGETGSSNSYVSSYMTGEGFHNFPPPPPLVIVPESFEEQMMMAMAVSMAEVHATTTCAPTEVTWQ

B1: GST-DA1-UIM (other)
chain: MGWFNKIFKGSNQRLRVGNNKHNHNVYYDNYPTASHDDEPSAADTDADNDEPHHTQEPSTSEDNTSNDQENEDIDRAIALSLLEENQEQTSISGKYSMPVDEDEQLARALQESMVVGNSPRHKSGSTYDNGNAYGAGDLYGNGHMYGGGNVYANGDIYYPRPITFQMDF
notes: Only the part holding the two UIM domains was in the assay; not shown: glutathione S-transferase (GST) tag from vector pGEX-4T-1
B2: GST-DA1-LIM (other)
chain: RICAGCNMEIGHGRFLNCLNSLWHPECFRCYGCSQPISEYEFSTSGNYPFHKACYRERYHP
notes: Only the LIM domain was in the assay; not shown: glutathione S-transferase (GST) tag from vector pGEX-4T-1

Biological target: T1, MBP-DA2
Assay: in vitro pull-down on amylose resin, anti-GST immunoblot
Protocol: To test protein-protein interaction, bacterial lysates containing approximately 15 μg of MBP-DA2 fusion proteins were combined with lysates containing approximately 30 μg of GST-DA1, GST-DA1R358K, GST-DA1-UIM, GST-DA1-LIM, GST-DA1-LIM+C or GST-DA1-C fusion proteins. 20 μl amylose resin (New England Biolabs) was added into each combined solution with continued rocking at 4° C. for 1 hour. Beads were washed […] with TGH buffer, and the isolated proteins were separated on a 10% SDS-polyactyamide gel and detected by western blot analysis with anti-GST (Abmart) and anti-MBP antibodies (Abmart), respectively.

Row | Binder | binding result
1 | B1 | no binding
2 | B2 | no binding
